Assays:
maize EPSPS [1] = assay: kcat gly / kgly: enzyme turnover under application conditions (30 μM PEP and S3P, 1 mM glyphosate), phosphate release coupled to MESG; format: biochemical
Description: A more straight-forward, accurate and meaningful parameter is one in which one rate measurement is performed under presumed in vivo conditions, if known. To establish a set of conditions that mimic those under which the mutated enzyme needs to perform, the concentrations of PEP and S3P were set low (30 uM, subject to the sensitivity of assay conditions) to approach the presumed intracellular concentrations (˜15 uM, the approximate values of KM for both PEP and S3P). Glyphosate is included at 1 mM. The pH is set at 7.0 and ionic strength at 100 mM KCl, also to mimic known in vivo conditions. Ethylene glycol is present at 5% (v/v) to approximate the dielectric constant of intracellular fluid. The parameter is termed “enzyme turnover under application conditions”, which is herein shortened to “kcat gly”. The conventional formatting of the expression “kcat” is not used, to avoid this term being characterized as a standard kinetic constant.
(§1) EPSPS activity was determined by quantifying the phosphate generated from the EPSPS reaction. Release of inorganic phosphate was coupled to its reaction with 2-amino-6-mercapto-7-methylpurine ribonucleoside (MESG), catalyzed by purine nucleoside phosphorylase, according to previously described protocols. To determine the kcat gly, enzyme preparations were normalized to 0.1 mg/ml and four- to six-microliter aliquots of normalized enzyme were added to the wells of a low UV-absorbing 96-well assay plate (Greiner UV-Star). Reactions were started with the addition of 2×147 μl of reaction mixture containing 25 mM Hepes, pH 7.0, 100 mM KCl, 5% ethylene glycol, 30 μM each of PEP and S3P, 0.15 mM MESG, 1.5 U/ml purine nucleoside phosphorylase (Sigma N8264) and 1 mM glyphosate. Absorbance was monitored at 4 sec intervals for 50 sec with a Spectramax plate reader (Molecular Devices). […] Division by the enzyme concentration (0.04 to 0.1 uM, depending on activity) yields “kcat gly” in units of min^−1.
(§2) Approximately 30 substitutions were designed into each library. Assuming an average incorporation rate of six substitutions per variant, the theoretical size of such libraries is ˜7×10^5. Libraries were screened using methods described previously and the enhanced method described in Example 2. The number of colony-forming units plated and screened was in the range of 50 to 100% of the theoretical size. Up to 200 colonies per library were picked for evaluation of the expressed variant. Proteins were purified as described previously in PCT/US2016/054399, incorporated herein by reference. Protein concentration was determined by measuring optical density at 280 nm. The extinction coefficient of native maize EPSPS (0.676 OD/mg/ml) was calculated by vNTI and used to convert OD280 to mg/ml. Kinetic parameters were determined as described in Example 1.
A customized parameter for predicting performance in the treated plant that would be a more accurate representation than kcat/Km*Ki. […] However, kcat/Km*Ki may be inadequate for predicting the reaction velocity under the conditions of the application (plants sprayed with glyphosate) because it may neglect concentrations of substrate and inhibitor, factors that are not intrinsic to the enzyme, but on which the reaction rate depends. Therefore, libraries derived from C1 on in FIG. 2 were evaluated with a single rate measurement designed to take all factors in the rate equation for competitive inhibition into account. […] Glyphosate was included at 1 mM, a concentration attainable in tissues, especially meristems, receiving metabolite flow from treated leaves. The pH (7.0), ionic strength (100 mM KCl) and co-solvent concentration (5% ethylene glycol) were also intended to mimic in vivo conditions. The unit for the parameter is reaction rate (μM·min^−1) per enzyme concentration (μM), or min^−1, describing the enzyme turnover under application conditions, which we abbreviate as “kgly”. […]

maize EPSPS [2] = assay: substrate saturation kinetic analysis (kcat, KM PEP, KI glyphosate); format: biochemical; settings: Table 2; for Km: KM for PEP, read-out: KM; for KI/KM: discrimination between glyphosate and PEP; for Ki: inhibitor glyphosate
Description: as §1, §2
Combinatorial shuffling, maize native EPSPS—The mutations discovered were used to construct a combinatorial library designed to explore combinations of the desensitizing mutations in novel sequence contexts provided by the newly identified neutral mutations. Note that the amino acid position numbering in this Example 10 refers to the relative position of native maize EPSPS without the N-terminal Met. Therefore, G101A in this Example would be G102A in reference to SEQ ID NO: 1, wherein the maize EPSPS sequence has a Met added at the N-terminal. The diversity used was the same with the addition of G101A, T102 (IALGV) and P106(WA). In all, 43 substitutions at 29 positions were selected. The library was synthesized entirely from oligonucleotides, using the known technique of synthetic shuffling and was termed NatFS (Native, fully synthetic). The vector DNA of the library was transformed into the BL21(DE3) Tuner-AroA knockout strain and the cells were plated onto M9 medium containing either 30 mM glyphosate and 30 μM of the lac operon inducer isopropyl β-D-1-thiogalactopyranoside (IPTG) or 50 mM glyphosate and no IPTG. The 184 colonies that grew on either plate were picked and subjected to a second tier of screening in which EPSPS proteins were purified and activity measured at high (200 μM) and low (50 μM) PEP and S3P, with or without 10 μM glyphosate. Selected variants were subjected to substrate saturation kinetic analysis.

[3] = Table 2, 30 μM PEP and S3P, 1 mM glyphosate, pH 7.0

Row | Molecule | kcat gly (maize EPSPS [1]; [3]) | kcat (maize EPSPS [2]) | kcat/KM*KI (maize EPSPS [2]) | Km (maize EPSPS [2]) | KI/KM (maize EPSPS [2]) | Ki (maize EPSPS [2]) | kcat gly (maize EPSPS [1]; Table 5, maize variants) | Zm/Os (maize EPSPS [1]; Table 5, ratio of kcat gly, maize variant to rice ortholog)
1 | Zm D2-28: maize EPSPS variant, SEQ ID NO: 8 (protein, Zea mays) MRKWEEIVLQPIKEISGTVKLPGSKSLSNRILLLAGLAEGTTVVDNLLNSEDVHYMLGALRTLGLSVEHDKAAKRAVVVGCGGRFPVEDAKGEVQLFCGNAATAMRPLTAAVTAAGGNATYVLDGVPRMRERPIGDLVVGLKQLGADVDCFLGTDCPPVRVNGIGGLPGGKVKLSGSISSQYLSALLMAAPLALGDVEIEIIDKLISLPYVEMTLRLMERFGVKAERSDSWDRFYIKGGQSYLSPKNAYVEGDASSASYFLAGAAITGGTVTVEGCGTTSLQGDVKFAEVLEMMGAKVTWTEASVTVTGPPREPFGRKHLKAIDVNMNKMPDAAMTLAVVALFADGPTAIRDVGSWRVKETERMVAIRTELTKLGASVEEGPDYCIITPPEKLNVTAIDTYGDHRMAMAFSLAACAEVPVTIRDPGCTRKTFPDYFDVLSTFVKN | 2 s⁻¹ | 8.03 s⁻¹ | 21500 | 15.8 µM | 44.5 | 703 µM |  | 
2 | Zm D2-67: maize EPSPS variant, SEQ ID NO: 5 (protein, Zea mays) MRKWEEIVLQPIKEISGTVKLPGSKSLSNRILLLAALSEGTTVVDNLLNSEDVHYMLGALRTLGLSVEHDKAAKRAVVVGCGGRFPVEDAKGEVQLFCGNAATAMRPLTAAVTAAGGNATYVLDGVPRMRERPIGDLVVGLKQLGADVDCFLGTDCPPVRVNGIGGLPGGKVKLSGSISSQYLSALLMAAPLALGDVEIEIIDKLISLPYVEMTLRLMERFGVKAEHSDSWDRFYIKGGQKYESPKNAYVEGDASSASYFLAGAAITGGTVTVEGCGTTSLQGDVKFAEVLEMMGAKVTWTETSVTVTGPPREPFGRKHLKAIDVNMNKMPDAAMTLAVVALFADGPTAIRDVGSWRVKETERMVAIRTELTKLGASVEEGPDYCIITPPPKLNVTAIDTYGDHRMAMAFSLAACAEVPVTIRDPGCTRKTFPDYFDVLSTFVKN | 1.98 s⁻¹ | 9.47 s⁻¹ | 27100 | 20 µM | 47.7 | 955 µM | 2.3 s⁻¹ | 1.35
3 | Zm D2-68: maize EPSPS variant, SEQ ID NO: 4 (protein, Zea mays) MRKWEEIVLQPIKEISGTVKLPGSKSLSNRILLLAALAEGTTVVDNLLNSEDVLYMLGALRTLGLSVEHDKAAKRAVVVGCGGRFPVEDAKGEVQLFCGNAATAMRPLTAAVTAAGGNATYVLDGVPRMRERPIGDLVVGLKQLGADVDCFLGTDCPPVRVNGIGGLPGGKVKLSGSISSQYLSALLMAAPLALGDVEIEIIDKLISLPYVEMTLRLMERFGVKAEHSDSWDRFYIKGGQKYLSPKNAYVEGDASSASYFLAGAAITGGTVTVEGCGTTSLQGDVKFAEVLEMMGAKVTWTETSVTVTGPPREPFGRKHLKAIDVNMNKMPDAAMTLAVVALFADGPTAIRDVASWRVKETERMVAICTELTKLGASVEEGPDYCIITPPPKLNVTAIDTYGDHRMAMAFSLAACAEVPVTIRDPGCTRKTFPDYFDVLSTFVKN | 1.88 s⁻¹ | 9.23 s⁻¹ | 37400 | 22.1 µM | 67.5 | 1490 µM |  | 
4 | Zm D2-82: maize EPSPS variant, SEQ ID NO: 6 (protein, Zea mays) MRKWEEIVLQPIKEISGTVKLPGSKSLSNRILLLAALSEGTTVVDNLLNSEDVHYMLGALRTLGLSVEHDKAAKRAVVVGCGGRFPVEDAKGEVQLFCGNAATAMRPLTAAVTAAGGNATYVLDGVPRMRERPIGDLVVGLKQLGADVDCFLGTDCPPVRVNGIGGLPGGKVKLSGSISSQYLSALLMAAPLALGDVEIEIIDKLISLPYVEMTLRLMERFGVKAEHSDSWDRFYIKGGQKYESPKNAYVEGDASSASYFLAGAAITGGTVTVEGCGTTSLQGDVKFAEVLEMMGAKVTWTETSVTVTGPPREPFGRKHLKAIDVNMNKMPDAAMTLAVVALFADGPTAIRDVGSWRVKETERMVAICTELTKLGASVEEGPDYCIITPPPKLNVTAIDTYGDHRMAMAFSLAACAEVPVTIRDPGCTRKTFPDYFDVLSTFVKN | 2.07 s⁻¹ | 10.4 s⁻¹ | 30900 | 26.3 µM | 49.4 | 1300 µM |  | 
